As usually defined, the stoichiometry N is the number of molecules, sites or subunits per partner or assembly.

The source of these data is paper PMC4513130, “Neuronal Calcium Sensor-1 Binds the D2 Dopamine Receptor and G-protein-coupled Receptor Kinase 1 (GRK1) Peptides Using Different Modes of Interactions” (The Journal of Biological Chemistry, 2015).

For assay [1], the target named is D2 receptor peptide (D2R peptide) (human). Briefly: crystal structure; NCS-1 (1 mM) with 2-fold excess of D2R peptide; 150 mM Tris-HCl pH 8.0, 8% ethylene glycol, 20% PEG 5000, 20 °C; 2.19 Å.
Assay [2] shares this target. Briefly: ITC; 1 mM Ca2+/NCS-1 in the syringe titrated into 100 uM D2R peptide in the cell, 25 °C, 50 mM Tris-HCl, 50 mM NaCl, 5 mM CaCl2, pH 7.5; fitted to a sequential model and to a two-site nonsequential model with stoichiometry fixed at 1:2 NCS-1:peptide.
In assay [3] the target is GRK1 peptide (N terminus of G-protein-coupled receptor kinase 1, residues 1-25). Briefly: crystal structure; NCS-1 (1 mM) with 2-fold excess of GRK1 peptide; 0.12 M alcohols, 0.1 M HEPES/MOPS pH 7.5, 30% PEGMME 550 and PEG 20000, 20 °C; 2.30 Å.
Sequence of GRK1 peptide (N terminus of G-protein-coupled receptor kinase 1, residues 1-25) (Q15835 1-25): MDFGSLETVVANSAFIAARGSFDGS

Sequence of Rattus norvegicus neuronal calcium sensor-1 (NCS-1), full-length, Ca2+-bound (P62168 whole entry): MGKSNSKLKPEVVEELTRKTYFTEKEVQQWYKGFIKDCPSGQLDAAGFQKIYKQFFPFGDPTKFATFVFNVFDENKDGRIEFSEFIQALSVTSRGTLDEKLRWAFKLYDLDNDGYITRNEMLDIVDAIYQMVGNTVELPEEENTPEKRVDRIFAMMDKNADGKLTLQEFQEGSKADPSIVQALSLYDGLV

Turning to “Rattus norvegicus neuronal calcium sensor-1 (NCS-1), full-length, Ca2+-bound (from UniProt P62168 1-190) (natural protein)”, in assay [1], the stoichiometry N was determined as 2. Also, in assay [2], the Kd, sequential binding model, first value amounted to 43 µM; the Kd, sequential binding model, second value came to 58 µM; the dH is -2.06 kcal/mol. In assay [3], this substance gave a stoichiometry N of 1.
